From US20040266687A1, “Compositions and methods comprising protein activated receptor antagonists” (priority 2002, published 2004)

T1: PAR-2 (Homo sapiens, UniProt P55085)
T1 construct: endogenous in cells; host or cells: HUVEC or HT29 colon carcinoma cells
T1 sequence (P55085 26-397): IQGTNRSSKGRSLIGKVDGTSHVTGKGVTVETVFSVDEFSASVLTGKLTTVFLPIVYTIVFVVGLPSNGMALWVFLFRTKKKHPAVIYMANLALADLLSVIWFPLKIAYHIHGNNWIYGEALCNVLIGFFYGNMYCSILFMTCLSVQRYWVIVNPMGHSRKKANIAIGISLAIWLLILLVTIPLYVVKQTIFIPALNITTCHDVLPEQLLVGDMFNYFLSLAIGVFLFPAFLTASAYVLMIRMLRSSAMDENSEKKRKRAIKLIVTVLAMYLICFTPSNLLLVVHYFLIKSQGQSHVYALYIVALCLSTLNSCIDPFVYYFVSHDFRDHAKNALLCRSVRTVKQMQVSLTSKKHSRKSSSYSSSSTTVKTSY

T2: PAR-1 (Homo sapiens, UniProt P25116)
T2 construct: endogenous in cells; host or cells: HUVEC or HT29 colon carcinoma cells
T2 sequence (P25116 22-425): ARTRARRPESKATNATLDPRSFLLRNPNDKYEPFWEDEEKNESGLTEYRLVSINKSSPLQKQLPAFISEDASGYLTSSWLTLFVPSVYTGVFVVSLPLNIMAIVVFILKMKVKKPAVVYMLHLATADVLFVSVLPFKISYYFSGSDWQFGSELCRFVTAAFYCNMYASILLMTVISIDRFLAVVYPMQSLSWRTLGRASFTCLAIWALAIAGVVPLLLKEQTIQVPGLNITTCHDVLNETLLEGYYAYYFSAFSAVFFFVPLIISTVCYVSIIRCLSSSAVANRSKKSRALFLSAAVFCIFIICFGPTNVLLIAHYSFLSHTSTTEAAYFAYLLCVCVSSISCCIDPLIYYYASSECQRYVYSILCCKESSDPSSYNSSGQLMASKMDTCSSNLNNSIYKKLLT

T3: Proteinase activated receptor-2 (PAR-2) (UniProt P55085 37-397, limits assumed)
T3 sequence (looked up): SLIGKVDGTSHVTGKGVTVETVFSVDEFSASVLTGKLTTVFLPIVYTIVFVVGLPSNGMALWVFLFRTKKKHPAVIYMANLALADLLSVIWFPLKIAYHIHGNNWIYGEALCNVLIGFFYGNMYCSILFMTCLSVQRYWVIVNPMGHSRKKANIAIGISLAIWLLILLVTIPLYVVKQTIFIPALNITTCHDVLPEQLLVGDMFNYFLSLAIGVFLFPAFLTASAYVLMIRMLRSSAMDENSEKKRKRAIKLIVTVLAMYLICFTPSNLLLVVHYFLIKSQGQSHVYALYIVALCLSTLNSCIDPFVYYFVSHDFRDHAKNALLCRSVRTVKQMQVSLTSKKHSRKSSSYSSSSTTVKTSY


Columns and labels:
[1] = target: T1, PAR-2; experiment: Inhibition of P2AP (SLIGKV)-stimulated PAR-2 signaling in cells pretreated with antagonist; assay type: cell-based; details: result in words; cells pretreated with the substance, then P2AP
Description: (§1) Confluent HUVECs or HT29 colon carcinoma cells were loaded for 30-60 minutes with the fluorescent dye Fluo-4. Final concentration 4 uM Fluo-4, 0.02% pluronic acid in physiological buffer. Cells were then washed with assay buffer, (HBSS containing 1 mM CaCl2, 1 mM MgSO4, and 2.5 mM probenecid). Cells were stimulated with various doses of PAR-2 activating peptide, PAR-1 activating peptide or ATP.
(§2) Fluorescence was monitored using a Wallac 1470 fluorescent plate reader. (See Al-ani et. al Journal of Pharmacology and Experimental Therapeutics 290:2, 753-760)
In order to assess the potential of peptides selected above to block PAR-2 signaling, cells were pretreated with potential antagonist peptides for a predetermined amount of time and were subsequently treated with P2AP. Methods and protocols used were the same as those described in Example 1.

[2] = tested on: ATP signaling (G-protein coupled receptors); experiment: Activation study with ATP on cells pretreated with antagonist; assay type: cell-based; details: cells pretreated with the substance
Description: as §1, §2
(§3) Both of these molecules signal through G-protein coupled receptors, and PAR-1 is very highly homologous to PAR-2, to the degree that the PAR-1 agonist peptide can signal through PAR-2 at high concentrations.

[3] = target: T2, PAR-1; experiment: Activation study with PAR-1 activation peptide SFLLRN on cells pretreated with antagonist; assay type: cell-based; details: cells pretreated with the substance
Description: as §1, §2, §3

[4] = tested on: Lewis lung carcinoma; experiment: Lewis lung carcinoma (LLC) experimental metastatic model; assay type: in vivo, mice; details: metastatic tumor growth studies, FIG. 16
Description: In this tumor growth model, treatments were initiated on day 3 post inoculation, after tumor cells had homed to the lung, and started growing. […] At a dose of 4 mg/day tumor growth was inhibited by 75%. […] C57/B16 mice were injected i.v. with Lewis lung carcinoma. 3 days later, treatment of lung tumors was started with i.p. LIGK (SEQ ID NO:1) for 11 days.

[5] = Arthritis in mice (anti-collagen II antibody plus LPS), foot thickness; assay type: in vivo; details: 200 mg/kg/day i.p. for 7 days, Balb/c mice, FIG. 19
Description: On day 0, Balb/c mice were injected IV with the 1 -2 mg 1B11 monoclonal anti-collagen II antibody. On day 1, animals were injected i.p with 20 ug LPS, and treatment with PAR-2 antagonists (200 mg/kg/day i.p). for 7 days is initiated. After treatment was completed, disease is quantified by measuring the thickness (swelling) in both feet of the mouse. This was compared to untreated mice. (p<0.05 vs. vehicle control)

[6] = target: T1, PAR-2; experiment: PAR signalling activity: calcium mobilization (Fluo-4) in response to peptides; assay type: cell-based; details: result in words, FIG. 4A-4C
Description: as §1, §2
Calcium mobilization curves of the PAR-2 agonist SLIGKV (SEQ ID NO:25) compared with two truncated molecules LIGK (SEQ ID NO:1) and LIGKV (SEQ ID NO:2) are provided in FIG. 4A. […] Similar studies were performed on alanine substituted SLIGKV (SEQ ID NO:25) peptides (FIGS. 4B and 4C).

[7] = target: T3, Proteinase activated receptor-2 (PAR-2); experiment: cell-based or functional assay

Molecule | antagonist activity on PAR-2 signaling [1] | calcium mobilization / signaling activity [6] | also measured
Br.CC(C)CC(=O)N1CCN(C(=O)CCCCCN)CC1 [ENMD-547] | extremely potent inhibitor |  | inhibitory effect on signaling by ATP [2]: no inhibitory effects; inhibitory effect on signaling by PAR-1 (activation peptide SFLLRN) [3]: no inhibitory effects; antitumor activity relative to the parental LIGK molecule [4]: approximately five fold; inflammation (arthritis, foot swelling) [5]: inhibited inflammation
LIGKV | demonstrated antagonist activity | Neither truncated molecule was able to induce calcium mobilization | 
SLIAKV [alanine substituted SLIGKV peptide] |  | robust signaling activity | 
SLIGKA [alanine substituted SLIGKV peptide] |  | robust signaling activity | 
SLIGKV (listed as Homo sapiens) [reference compound] |  | typical spike of calcium release followed by degradation of signal | 
LIGK [LIGK (SEQ ID NO:1)] |  |  | IC50 of inhibition of PAR-2 signaling (calcium mobilization stimulated by SLIGKV) [7]: < 500 µM
